Measurements published in publication PMC11645210 (Cell, 2024).

Assays:
Assay in all cases: SPR
Conditions in all cases: both partners purified
SARS-CoV-2 XBB.1 RBD = SARS-CoV-2 XBB.1 RBD (SARS-CoV-2 Omicron XBB.1, strain)
SARS-CoV-2 XBB.1.5 RBD = SARS-CoV-2 XBB.1.5 RBD (SARS-CoV-2, UniProt P0DTC2)
SARS-CoV-2 CH.1.1 RBD = SARS-CoV-2 CH.1.1 RBD (SARS-CoV-2 Omicron CH.1.1, strain)
SARS-CoV-2 BA.1 RBD = SARS-CoV-2 BA.1 RBD (SARS-CoV-2, UniProt P0DTC2)
SARS-CoV-2 BA.2 RBD = SARS-CoV-2 BA.2 RBD (SARS-CoV-2 Omicron BA.2, strain)
SARS-CoV-2 BA.2.75.2 RBD = SARS-CoV-2 BA.2.75.2 RBD (SARS-CoV-2 Omicron BA.2.75.2, strain)
SARS-CoV-2 BQ.1.1 RBD = SARS-CoV-2 BQ.1.1 RBD (SARS-CoV-2, UniProt P0DTC2)

B1: VIR-7229 Fab fragment (Fab, V domains shown)
VH: EVQLVESGGSVVQPGRALRLSCAASGITFSSFGMYWVRQAPGKGLEWLGYIAYDGSDTYYADSVKGRFTISRDNSKNTLYLQMNSLRIEDTAVYYCAKDYYPLLSYYYGLDVWGQGTTVTVSS
VL: QSVLTQPRSVSGSPGQSVTISCTGTSSDVGAYNYVSWYQQHPGKAPKFMIYDVDQRPSGVPDRFSGSKSGNTASLIISGLQAEDEADYYCSSYAGSYIWVFGGGTQLTVL
notes: source: ExpiCHO (IgG1); Fab by fragmentation of the IgG with the FabLACTICA Fab kit
Kd (SARS-CoV-2 XBB.1 RBD): 0.21 nM
koff (SARS-CoV-2 XBB.1 RBD): 0.000108 s⁻¹
kon (SARS-CoV-2 XBB.1 RBD): 524000 M⁻¹ s⁻¹
Kd (SARS-CoV-2 XBB.1.5 RBD): 0.06 nM
koff (SARS-CoV-2 XBB.1.5 RBD): 4.09e-05 s⁻¹
kon (SARS-CoV-2 XBB.1.5 RBD): 752000 M⁻¹ s⁻¹
Kd (SARS-CoV-2 CH.1.1 RBD): 0.12 nM
koff (SARS-CoV-2 CH.1.1 RBD): 6.63e-05 s⁻¹
kon (SARS-CoV-2 CH.1.1 RBD): 586000 M⁻¹ s⁻¹
Kd (SARS-CoV-2 BA.1 RBD): 0.434 nM
koff (SARS-CoV-2 BA.1 RBD): 0.000124 s⁻¹
kon (SARS-CoV-2 BA.1 RBD): 285000 M⁻¹ s⁻¹
Kd (SARS-CoV-2 BA.2 RBD): 0.396 nM
koff (SARS-CoV-2 BA.2 RBD): 9.72e-05 s⁻¹
kon (SARS-CoV-2 BA.2 RBD): 245000 M⁻¹ s⁻¹
Kd (SARS-CoV-2 BA.2.75.2 RBD): 0.284 nM
koff (SARS-CoV-2 BA.2.75.2 RBD): 0.000117 s⁻¹
kon (SARS-CoV-2 BA.2.75.2 RBD): 431000 M⁻¹ s⁻¹
Kd (SARS-CoV-2 BQ.1.1 RBD): 0.0993 nM
koff (SARS-CoV-2 BQ.1.1 RBD): 5.63e-05 s⁻¹
kon (SARS-CoV-2 BQ.1.1 RBD): 582000 M⁻¹ s⁻¹
